Source: patent publication US20040259770A1, “Method for determining leukocyte activation” (Rush University Medical Center, priority 2003, published 2004)
Read-outs that look alike come from different tables or passages of the source.

Experiments:
[1] = test system: eosinophils; test: Flow cytometric analysis of binding of lactoferrin by eosinophils; parameters: species or system human
Method: Eosinophils (10^6 cells) were incubated with or without the indicated concentrations of lactoferrin in 100 microliters of HEPES-HBSS-HSA buffer for 90 minutes at 4° C. The cells were collected by centrifugation at 300 g for 5 minutes at 4° C., and then incubated with 1.5 micrograms FITC-conjugated polyclonal anti-lactoferrin (Sigma Chemical Co.) or FITC-conjugated rabbit IgG (Sigma Chemical Co.) in 25 microliters PBS (pH 7.2) containing 0.1 percent gelatin and 0.1 percent azide (PBS-gel-azide) for 30 minutes on ice. The cells were washed twice in ice-cold PBS-gel-azide and were suspended in PBS-gel-azide buffer containing 1 percent formaldehyde for analysis by flow cytometry. Fluorescence intensity of 10,000 cells in each sample was measured using a FACScan flow cytometer (Becton-Dickinson; San Jose, Calif.).

[2] = test system: lactoferrin receptor on neutrophils; conditions: Boxer et al. 1982, cited from earlier work
[3] = molecular target: lactoferrin receptors on eosinophils; test: Binding of 125I-labeled lactoferrin by eosinophils, Scatchard analysis; parameters: species or system human; conditions: three experiments, 2 hours at room temperature
Method: Lactoferrin (100 micrograms) was radioiodinated using IODO-GEN iodination reagent (Pierce; Rockford, Ill.) according to the procedure supplied by the manufacturer. The lactoferrin was incubated with 400 micro Curies Na^125I (PerkinElmer Life Sciences; Boston, Mass.) for 3 min, and the ^125I-labeled lactoferrin was separated from free Na^125I by chromatography through a 5-ml D-Salt dextran desalting column (Pierce) using PBS as the elution buffer. Protein concentration of the ^125I-labeled lactoferrin was measured by the BCA assay (Pierce). Specific activity of the ^125I-labeled lactoferrin was 34,800 cpm/pmole. […] Binding of ^125I-labeled lactoferrin by eosinophils was determined using a modification of previously described protocols for eosinophils. Motegi et al. J. Immunol. 161:4340 (1998); Lopez et al., J. Biol. Chem. 266:24741 (1991). Eosinophils (2×10^6) were incubated with the indicated concentrations of ^125I-labeled lactoferrin alone and in the presence of excess unlabeled lactoferrin in RPMI 1640 containing 20 mM HEPES, 0.5% BSA, and 0.1% sodium azide (Lopez et al., J. Biol. Chem. 266:24741 (1991)) in siliconized glass tubes for 2 hr at room temperature on a circular oscillating platform. In some experiments as indicated, binding was measured in the presence of excess unlabeled transferrin. Total reaction volume was 0.15 ml. Reactions were stopped by centrifugation (1300 g for 4 min) of the reaction mixture through 200 microliters FCS in a 1.5 ml microcentrifuge tube. The supernatant was removed by careful aspiration, and after quick-freezing on dry ice the tip of the tube containing the cell pellet was excised and the radioactivity was measured by gamma counting (Beckman Coulter Gamma 5500B). Specific binding was determined as the difference between total binding and binding in the presence of the excess unlabeled lactoferrin. Binding constants were determined by Scatchard analysis (Scatchard, G., Ann. N.Y. Acad. Sci. 51:660 (1949)).

[4] = test system: eosinophils; test: Eosinophil superoxide production (cytochrome c reduction) in protein-coated tissue culture wells; type: cell-based, human; conditions: 1 to 100 micrograms per milliliter of the protein, 2 hours at 37° C
Method: Neutrophils were isolated from venous blood of healthy adult volunteers by density gradient centrifugation through lymphocyte separation medium (BioWhittaker; Walkersville, Md.) as described previously (Haskell M. D., et al., Blood 86:4627-4637 (1995)) with one modification. Isotonicity was restored following the brief hypotonic lysis steps by the addition of 2× concentrated Hank's Balanced Salt Solution (HBSS) (Gibco; Grand Island, N.Y.) (without Ca^2+ and Mg^2+) containing 5 mM HEPES, pH 7.4. The cells were suspended in HEPES (10 mM)-buffered HBSS (with Ca^2+ and Mg^2+), pH 7.4, containing 1 milligram per milliliter of human serum albumin (HSA) (Sigma Chemical Co.) (HEPES-HBSS-HSA buffer). Neutrophil purity was routinely greater than 95 percent, with eosinophils representing the remainder of the cells. Eosinophils were isolated from the neutrophil preparations by negative selection (Hansel T. T., et al., J. Immunol. Meth. 145:105-10 (1991)) using anti-CD16 immunomagnetic beads as described by the manufacturer (Miltenyi Biotec, Inc., Auburn, Calif.). The eosinophils were suspended in HEPES-HBSS-HSA buffer. Eosinophil purity was routinely greater than 95 percent as determined by counting Wright-stained cytospin preparations. In some assays, an aliquot of the neutrophil preparation was held on ice for later use.
Superoxide production was measured essentially as described elsewhere (Motegi, Y., and H. Kita, J. Immunol. 161:4340 (1998)). Briefly, wells in a 96-well (flat bottom) tissue culture plate (Corning, Inc.; Corning, N.Y.) were coated with human milk lactoferrin (Sigma Chemical Co.) or human secretory IgA (ICN Biomedical; Aurora, Ohio) by incubation with 50 microliters of the indicated concentrations of the proteins in phosphate buffered saline (PBS) overnight at 4° C. Non-specific protein binding sites were blocked by subsequent incubation with 100 microliters of 25 milligrams per milliliter of HSA in PBS for 2 hours at 37° C., and the tissue culture wells were washed twice with PBS before use. Aliquots (5×10^4 cells) of eosinophils or neutrophils were added to the wells and were incubated in HEPES-HBSS—HSA buffer containing 50 micromolar cytochrome c (Sigma Chemical Co.) for 120 minutes at 37° C. in a Ceres UV900HDi microplate reader (Bio-Tek Instruments, Inc., Winooski, Vt.). Total incubation volume was 0.2 milliliters. Absorbance at 550 nanometers was recorded at 15-minute intervals, and superoxide production was calculated as described previously (Motegi, Y., and H. Kita, J. Immunol. 161:4340 (1998)). Results are expressed as nanomoles superoxide per 10^5 cells after subtraction of spontaneous production, which was measured in tissue culture wells coated only with HSA. GM-CSF (R & D Systems; Minneapolis, Minn.), porcine heparin (Sigma Chemical Co.), or chondroitin sulfate C (Sigma Chemical Co.) was added to the incubation mixtures in some assays as indicated.

B1: lactoferrin: 78-80 kilodalton multifunctional glycoprotein of external secretions and neutrophil secondary granules (protein, UniProt P02788 20-710, looked up)
Lactotransferrin: GRRRSVQWCAVSQPEATKCFQWQRNMRKVRGPPVSCIKRDSPIQCIQAIAENRADAVTLDGGFIYEAGLAPYKLRPVAAEVYGTERQPRTHYYAVAVVKKGGSFQLNELQGLKSCHTGLRRTAGWNVPIGTLRPFLNWTGPPEPIEAAVARFFSASCVPGADKGQFPNLCRLCAGTGENKCAFSSQEPYFSYSGAFKCLRDGAGDVAFIRESTVFEDLSDEAERDEYELLCPDNTRKPVDKFKDCHLARVPSHAVVARSVNGKEDAIWNLLRQAQEKFGKDKSPKFQLFGSPSGQKDLLFKDSAIGFSRVPPRIDSGLYLGSGYFTAIQNLRKSEEEVAARRARVVWCAVGEQELRKCNQWSGLSEGSVTCSSASTTEDCIALVLKGEADAMSLDGGYVYTAGKCGLVPVLAENYKSQQSSDPDPNCVDRPVEGYLAVAVVRRSDTSLTWNSVKGKKSCHTAVDRTAGWNIPMGLLFNQTGSCKFDEYFSQSCAPGSDPRSNLCALCIGDEQGENKCVPNSNERYYGYTGAFRCLAENAGDVAFVKDVTVLQNTDGNNNEAWAKDLKLADFALLCLDGKRKPVTEARSCHLAMAPNHAVVSRMDKVERLKQVLLHQQAKFGRNGSDCPDKFCLFQSETKNLLFNDNTECLARLHGKTTYEKYLGPQYVAGITNLKKCSTSPLLEACEFLRK
- fluorescence intensity with FITC-conjugated anti-lactoferrin antibody ([1]; 30 micrograms per milliliter soluble lactoferrin, 90 minutes at 4° C): marked increase in the fluorescence intensity
- fluorescence intensity with FITC-conjugated anti-lactoferrin antibody ([1]; 100 micrograms per milliliter lactoferrin): did not produce any further increase in the level of fluorescence intensity
- lactoferrin concentration at which binding by eosinophils is saturated ([1]; flow cytometry analysis, approximately 0.4 micromolar): 30 micrograms per milliliter
- Kd ([2]; read-out: dissociation constant of lactoferrin receptor described for neutrophils): ~200 nM
- Kd ([2]; read-out: dissociation constant of lactoferrin receptor described on neutrophils): ~200 nM

B2: ^125I-labeled lactoferrin: lactoferrin radioiodinated with IODO-GEN reagent, 34,800 cpm/pmole (protein, UniProt P02788 20-710, looked up)
Lactotransferrin: B1 Lactotransferrin
modifications: 125I label
notes: lactoferrin radioiodinated with IODO-GEN reagent, 34,800 cpm/pmole
- Kd ([3]; mean+/−SE, listed as 125I-lactoferrin, read-out: KD, first class of receptors): ~47 nM
- Kd ([3]; mean+/−SE, read-out: KD, first class of receptors): 47 nM
- Kd ([3]; read-out: KD, second class of receptors): ~260 nM
- stimulation of eosinophil superoxide production (in words) [4]: retained full ability to stimulate eosinophil superoxide production

B3: soluble lactoferrin: human milk lactoferrin added in solution to HSA-coated wells (protein, UniProt P02788 20-710, looked up)
Lactotransferrin: B1 Lactotransferrin
- stimulation of eosinophil superoxide production (in words) [4]: stimulated minimal superoxide production

B4: immobilized deglycosylated lactoferrin: lactoferrin incubated with peptide N-glycosidase F for 72 hours at 37° C (protein, UniProt P02788 20-710, looked up)
Lactotransferrin: B1 Lactotransferrin
modifications: deglycosylated with PNGase F
notes: lactoferrin incubated with peptide N-glycosidase F for 72 hours at 37° C
- stimulation of eosinophil superoxide production (in words) [4]: stimulated superoxide production to the same extent and in the same concentration-dependent manner as immobilized mock-deglycosylated lactoferrin

B5: mock-deglycosylated lactoferrin: lactoferrin given the same treatment as deglycosylated lactoferrin but in the absence of PNGase F (protein, UniProt P02788 20-710, looked up)
Lactotransferrin: B1 Lactotransferrin
modifications: mock-deglycosylated
- stimulation of eosinophil superoxide production (in words) [4]: did not differ from that of control lactoferrin
